# Test results reported in IntAct's records for PubMed 9418902.
# B1: Tumor necrosis factor receptor superfamily member 4 (Mus musculus), P47741 (parent)
# chain: MYVWVQQPTALLLLALTLGVTARRLNCVKHTYPSGHKCCRECQPGHGMVSRCDHTRDTLCHPCETGFYNEAVNYDTCKQCTQCNHRSGSELKQNCTPTQDTVCRCRPGTQPRQDSGYKLGVDCVPCPPGHFSPGNNQACKPWTNCTLSGKQTRHPASDSLDAVCEDRSLLATLLWETQRPTFRPTTVQSTTVWPRTSELPSPPTLVTPEGPAFAVLLGLGLGLLAPLTVLLALYLLRKAWRLPNTPKPCWGNSFRTPIQEEHTDAHFTLAKI
# partner: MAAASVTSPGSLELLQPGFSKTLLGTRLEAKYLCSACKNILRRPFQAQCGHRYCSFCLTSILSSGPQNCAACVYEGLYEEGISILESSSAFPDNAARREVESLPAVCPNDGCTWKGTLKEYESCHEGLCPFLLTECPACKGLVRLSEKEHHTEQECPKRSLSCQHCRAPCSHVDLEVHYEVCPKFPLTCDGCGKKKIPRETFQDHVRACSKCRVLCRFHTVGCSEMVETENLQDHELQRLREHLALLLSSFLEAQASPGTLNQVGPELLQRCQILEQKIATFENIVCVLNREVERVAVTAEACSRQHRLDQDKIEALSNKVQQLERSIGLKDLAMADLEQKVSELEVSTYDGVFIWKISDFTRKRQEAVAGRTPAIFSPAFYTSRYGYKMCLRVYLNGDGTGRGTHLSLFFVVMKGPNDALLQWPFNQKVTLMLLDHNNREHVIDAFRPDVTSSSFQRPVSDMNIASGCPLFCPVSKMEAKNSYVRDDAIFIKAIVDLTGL
# B2: Tumor necrosis factor receptor superfamily member 4 (Mus musculus), P47741 (parent)
# chain: B1 chain
# partner: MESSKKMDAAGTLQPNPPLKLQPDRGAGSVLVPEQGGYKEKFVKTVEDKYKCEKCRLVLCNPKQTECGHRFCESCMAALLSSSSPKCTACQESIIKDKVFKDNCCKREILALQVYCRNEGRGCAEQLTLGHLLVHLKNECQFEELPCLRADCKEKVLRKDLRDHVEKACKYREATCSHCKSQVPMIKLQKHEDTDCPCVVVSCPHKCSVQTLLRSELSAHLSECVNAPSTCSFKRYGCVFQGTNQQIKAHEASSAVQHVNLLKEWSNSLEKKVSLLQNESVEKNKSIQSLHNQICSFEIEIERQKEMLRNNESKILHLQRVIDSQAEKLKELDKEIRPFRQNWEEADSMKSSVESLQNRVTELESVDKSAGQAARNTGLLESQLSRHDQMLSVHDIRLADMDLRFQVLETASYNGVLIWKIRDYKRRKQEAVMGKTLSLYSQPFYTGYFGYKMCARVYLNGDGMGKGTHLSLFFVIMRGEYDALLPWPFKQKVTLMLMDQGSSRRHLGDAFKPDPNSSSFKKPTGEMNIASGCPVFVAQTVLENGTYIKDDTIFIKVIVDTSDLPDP
# Variants of: B1
# Conditions: with traf2_mouse Traf2, P39429
row,Variant,effect of a mutation on the interaction
1,MYVWVQQPTALLLLALTLGVTARRLNCVKHTYPSGHKCCRECQPGHGMVSRCDHTRDTLCHPCETGFYNEAVNYDTCKQCTQCNHRSGSELKQNCTPTQDTVCRCRPGTQPRQDSGYKLGVDCVPCPPGHFSPGNNQACKPWTNCTLSGKQTRHPASDSLDAVCEDRSLLATLLWETQRPTFRPTTVQSTTVWPRTSELPSPPTLVTPEGPAFAVLLGLGLGLLAPLTVLLALYLLRKAWRLPNTPKPCWGNSFRAAAQEEHTDAHFTLAKI [T256A;P257A;I258A],disrupting interaction strength
2,MYVWVQQPTALLLLALTLGVTARRLNCVKHTYPSGHKCCRECQPGHGMVSRCDHTRDTLCHPCETGFYNEAVNYDTCKQCTQCNHRSGSELKQNCTPTQDTVCRCRPGTQPRQDSGYKLGVDCVPCPPGHFSPGNNQACKPWTNCTLSGKQTRHPASDSLDAVCEDRSLLATLLWETQRPTFRPTTVQSTTVWPRTSELPSPPTLVTPEGPAFAVLLGLGLGLLAPLTVLLALYLLRKAWRLPNTPKPCWGNSFRTPIQEEAAAAHFTLAKI [H262A;T263A;D264A],decreasing interaction strength
3,MYVWVQQPTALLLLALTLGVTARRLNCVKHTYPSGHKCCRECQPGHGMVSRCDHTRDTLCHPCETGFYNEAVNYDTCKQCTQCNHRSGSELKQNCTPTQDTVCRCRPGTQPRQDSGYKLGVDCVPCPPGHFSPGNNQACKPWTNCTLSGKQTRHPASDSLDAVCEDRSLLATLLWETQRPTFRPTTVQSTTVWPRTSELPSPPTLVTPEGPAFAVLLGLGLGLLAPLTVLLALYLLRKAWRLPNTPKPCWGNSFRTPIAAAHTDAHFTLAKI [Q259A;E260A;E261A],disrupting interaction strength

# Variants of: B2
# Conditions: with traf3_mouse Traf3, Q60803
row,Variant,effect of a mutation on the interaction
1,MYVWVQQPTALLLLALTLGVTARRLNCVKHTYPSGHKCCRECQPGHGMVSRCDHTRDTLCHPCETGFYNEAVNYDTCKQCTQCNHRSGSELKQNCTPTQDTVCRCRPGTQPRQDSGYKLGVDCVPCPPGHFSPGNNQACKPWTNCTLSGKQTRHPASDSLDAVCEDRSLLATLLWETQRPTFRPTTVQSTTVWPRTSELPSPPTLVTPEGPAFAVLLGLGLGLLAPLTVLLALYLLRKAWRLPNTPKPCWGNSFRTPIQEEAAAAHFTLAKI [H262A;T263A;D264A],decreasing interaction strength
2,MYVWVQQPTALLLLALTLGVTARRLNCVKHTYPSGHKCCRECQPGHGMVSRCDHTRDTLCHPCETGFYNEAVNYDTCKQCTQCNHRSGSELKQNCTPTQDTVCRCRPGTQPRQDSGYKLGVDCVPCPPGHFSPGNNQACKPWTNCTLSGKQTRHPASDSLDAVCEDRSLLATLLWETQRPTFRPTTVQSTTVWPRTSELPSPPTLVTPEGPAFAVLLGLGLGLLAPLTVLLALYLLRKAWRLPNTPKPCWGNSFRAAAQEEHTDAHFTLAKI [T256A;P257A;I258A],disrupting interaction strength
3,MYVWVQQPTALLLLALTLGVTARRLNCVKHTYPSGHKCCRECQPGHGMVSRCDHTRDTLCHPCETGFYNEAVNYDTCKQCTQCNHRSGSELKQNCTPTQDTVCRCRPGTQPRQDSGYKLGVDCVPCPPGHFSPGNNQACKPWTNCTLSGKQTRHPASDSLDAVCEDRSLLATLLWETQRPTFRPTTVQSTTVWPRTSELPSPPTLVTPEGPAFAVLLGLGLGLLAPLTVLLALYLLRKAWRLPNTPKPCWGNSFRTPIAAAHTDAHFTLAKI [Q259A;E260A;E261A],disrupting interaction strength
